Experimental data published in paper PMC9825155, “Cdk1-mediated threonine phosphorylation of Sam68 modulates its RNA binding, alternative splicing activity and cellular functions”.

Key:
Sam68 C-terminal region [1] = biological target: T1, Sam68 C-terminal region (UniProt Q07666 267-368); experiment: NMR titration; second estimate (probably Arg side chains); NMR: HSQC at 4 C (NMR buffer not given in material; purification in 50 mM sodium phosphate, 150 mM NaCl, pH 7.6 N-term / pH 7.0 C-term). Pull-down: 20 mM HEPES; settings: protein: recombinant; tags: GST removed by PreScission
T1 sequence (Q07666 267-368): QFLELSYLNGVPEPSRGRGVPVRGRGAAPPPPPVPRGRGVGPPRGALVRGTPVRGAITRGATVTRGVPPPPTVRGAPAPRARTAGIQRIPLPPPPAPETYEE

Sam68 N-terminal region [2] = biological target: T2, Sam68 N-terminal region (UniProt Q07666 1-96); experiment: as above; settings: protein: recombinant; tags: His-tag removed by TEV
T2 sequence (Q07666 1-96): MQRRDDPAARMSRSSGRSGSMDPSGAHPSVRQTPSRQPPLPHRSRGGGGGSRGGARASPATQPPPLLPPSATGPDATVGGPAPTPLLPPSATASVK

Sam68 C-terminal region [3] = biological target: T1, Sam68 C-terminal region; experiment: NMR titration; one of two estimates (backbone or Arg side chains; panel assignment not clear, error suggests eight backbone resonances); text range 30-70 uM; NMR: HSQC at 4 C (NMR buffer not given in material; purification in 50 mM sodium phosphate, 150 mM NaCl, pH 7.6 N-term / pH 7.0 C-term). Pull-down: 20 mM HEPES; settings: protein: recombinant; tags: GST removed by PreScission
Sam68 N-terminal region [4] = biological target: T2, Sam68 N-terminal region; experiment: NMR titration; one of two estimates (backbone or Arg side chains; panel assignment not clear, error suggests eight backbone resonances); text range 1-10 uM; NMR: HSQC at 4 C (NMR buffer not given in material; purification in 50 mM sodium phosphate, 150 mM NaCl, pH 7.6 N-term / pH 7.0 C-term). Pull-down: 20 mM HEPES; settings: protein: recombinant; tags: His-tag removed by TEV

## CUGGGUGACACACUAGCUAUAGCAUUAAAAGACCGAGCAAGU (ssRNA) [G8.5 RNA]
Sam68 C-terminal region [1]
  Kd: 68 µM
Sam68 N-terminal region [2]
  Kd: 12 µM
Sam68 C-terminal region [3]
  Kd: 32 ± 5 µM
Sam68 N-terminal region [4]
  Kd: 3.5 ± 1.2 µM
